Article PMC12105186 (Cell Communication and Signaling : CCS, 2025)
Several values for one entry are separate records, joined by “and”; a condition that tells them apart may be missing. Identical values can stand only once. Each block holds one molecule with its values, some of them ahead of it.

Columns and labels:
[1] = biological target: N-terminally 6×His-tagged AB region of hRXRγ (human); test: MST
AUC = biological target: the molecule itself; test: AUC
SEC-MALS = biological target: the molecule itself; test: SEC-MALS

- Kd [1]: 11.1 µM
Molecule: deletion mutant of human RXRγ lacking the AB region (ΔABhRXRγ) (from UniProt P48443 128-463) (domain or fragment)

B1: full-length human retinoid X receptor γ (hRXRγ) (receptor, UniProt P48443 1-463, looked up)
chain: MYGNYSHFMKFPAGYGGSPGHTGSTSMSPSAALSTGKPMDSHPSYTDTPVSAPRTLSAVGTPLNALGSPYRVITSAMGPPSGALAAPPGINLVAPPSSQLNVVNSVSSSEDIKPLPGLPGIGNMNYPSTSPGSLVKHICAICGDRSSGKHYGVYSCEGCKGFFKRTIRKDLIYTCRDNKDCLIDKRQRNRCQYCRYQKCLVMGMKREAVQEERQRSRERAESEAECATSGHEDMPVERILEAELAVEPKTESYGDMNMENSTNDPVTNICHAADKQLFTLVEWAKRIPHFSDLTLEDQVILLRAGWNELLIASFSHRSVSVQDGILLATGLHVHRSSAHSAGVGSIFDRVLTELVSKMKDMQMDKSELGCLRAIVLFNPDAKGLSNPSEVETLREKVYATLEAYTKQKYPEQPGRFAKLLLRLPALRSIGLKCLEHLFFFKLIGDTPIDTFLMEMLETPLQIT
- stoichiometry N (AUC): 5

B2: deletion mutant of human RXRγ lacking the AB region (ΔABhRXRγ) (domain or fragment, UniProt P48443 128-463, looked up)
chain: STSPGSLVKHICAICGDRSSGKHYGVYSCEGCKGFFKRTIRKDLIYTCRDNKDCLIDKRQRNRCQYCRYQKCLVMGMKREAVQEERQRSRERAESEAECATSGHEDMPVERILEAELAVEPKTESYGDMNMENSTNDPVTNICHAADKQLFTLVEWAKRIPHFSDLTLEDQVILLRAGWNELLIASFSHRSVSVQDGILLATGLHVHRSSAHSAGVGSIFDRVLTELVSKMKDMQMDKSELGCLRAIVLFNPDAKGLSNPSEVETLREKVYATLEAYTKQKYPEQPGRFAKLLLRLPALRSIGLKCLEHLFFFKLIGDTPIDTFLMEMLETPLQIT
- stoichiometry N (SEC-MALS): 4
- stoichiometry N (AUC): 2 and 6
